Data reported in patent publication US20090208949A1 (WISCONSIN ALUMNI RESEARCH FOUNDATION, published 2009).
Values belong to the binder of their own block, whether it stands above or below them. Where no end group is shown, it is not given here.

Experiments:
LMO4 = molecular target: T1, LMO4 (Homo sapiens (Human), UniProt P61968 1-165); assay: yeast two-hybrid screen
T1 sequence: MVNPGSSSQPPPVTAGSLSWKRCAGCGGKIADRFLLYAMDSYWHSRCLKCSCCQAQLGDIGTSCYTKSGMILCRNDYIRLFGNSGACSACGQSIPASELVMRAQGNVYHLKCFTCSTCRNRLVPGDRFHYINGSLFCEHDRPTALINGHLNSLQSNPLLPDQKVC

sorting nexin 5 = molecular target: T2, sorting nexin 5 (Homo sapiens (Human), UniProt Q9Y5X3 1-404, limits assumed); assay: yeast two-hybrid screen
T2 construct: also called SNX5; Myc-SNX5
T2 sequence: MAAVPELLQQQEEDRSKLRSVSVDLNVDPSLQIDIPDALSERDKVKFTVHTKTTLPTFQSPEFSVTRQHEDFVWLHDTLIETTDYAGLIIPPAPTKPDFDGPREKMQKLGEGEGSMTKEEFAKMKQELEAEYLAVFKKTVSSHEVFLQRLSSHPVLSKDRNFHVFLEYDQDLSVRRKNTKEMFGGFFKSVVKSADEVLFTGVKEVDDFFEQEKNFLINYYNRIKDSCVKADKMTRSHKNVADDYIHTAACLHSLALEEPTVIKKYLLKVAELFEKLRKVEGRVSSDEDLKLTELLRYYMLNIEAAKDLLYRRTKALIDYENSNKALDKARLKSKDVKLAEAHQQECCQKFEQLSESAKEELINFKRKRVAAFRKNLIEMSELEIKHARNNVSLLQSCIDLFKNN

- binding result (LMO4): binds
B1: C-terminus of the PIPKIγ 700 variant (other)
chain: WRLWGPHAPTWPWRREGRAACLCPYPPHVVTPFPGTGLCASWSPDGTGGLGAMSCCVSVS
modifications: not fully specified; cysteine pairing not given here
notes: Yeast two-hybrid bait

- binding result (sorting nexin 5): binds
B2: C-terminus of the PIPKIγ 707 splice variant (other)
chain: FTDGRYWIYSPRHRRLRAVTLSASGTVSDRSRPPWGEGAVPLGQQGAAGPRPEAQCLTSVVFQKGFG
notes: Yeast two-hybrid bait
